Measured values reported in patent US20200308257A1 (VISTERRA, published 2020).
Where “and” joins values, the source holds several entries; their conditions need not be identical. Equal values may be shown once.

How the values were obtained:
Assay in all cases: cell-based or functional assay
[1] = target: T1, hemagglutinin (HA) of influenza A/Hong Kong/4801/2014 (H3N2) (influenza A virus (H3N2))
[2] = target: hemagglutinin (HA) of influenza A/California/04/2009 (H1N1) (influenza A virus (H1N1))
[3] = target: T2, hemagglutinin (HA) of influenza A/Michigan/45/2015 (H1N1)pdm09 (influenza A virus (H1N1))
[4] = target: hemagglutinin (HA) of influenza A/Florida/70303/2017 (H3N2) (influenza A virus (H3N2))
[5] = target: hemagglutinin (HA) of influenza A/Latvia/0303005/2018 (H1N1) (influenza A virus (H1N1))
[6] = target: hemagglutinin (HA) of influenza A/Serbia/0502016/2018 (H1N1) (influenza A virus (H1N1))
[7] = target: hemagglutinin (HA) of influenza A/Latvia/30314/2017 (H3N2) (influenza A virus (H3N2))
[8] = target: hemagglutinin (HA) of influenza A/Florida/71210/2017 (H3N2) (influenza A virus (H3N2))
[9] = target: hemagglutinin (HA) of influenza A/Switzerland/8060/2017 (H3N2) (influenza A virus (H3N2))
[10] = target: hemagglutinin (HA) of influenza A/Latvia/30101/2017 (H3N2) (influenza A virus (H3N2))
[11] = target: hemagglutinin (HA) of influenza A/Florida/70702/2017 (H1N1) (influenza A virus (H1N1))
[12] = target: hemagglutinin (HA) of influenza A/Spain/2604004/2018 (H3N2) (influenza A virus (H3N2))
[13] = target: hemagglutinin (HA) of influenza A/Singapore/INFIMH-16 0019/2016 (H3N2) (influenza A virus (H3N2))
[14] = target: hemagglutinin (HA) of influenza A/Serbia/0502013/2018 (H1N1) (influenza A virus (H1N1))
[15] = target: hemagglutinin (HA) of influenza A/Bulgaria/10101/2017 (H3N2) (influenza A virus (H3N2))
[16] = target: hemagglutinin (HA) of influenza A/Brisbane/02/2018 (H1N1) (influenza A virus (H1N1))
[17] = target: hemagglutinin (HA) of influenza A/Thailand/2702008/2018 (H1N1) (influenza A virus (H1N1))
[18] = target: hemagglutinin (HA) of influenza A/Florida/71268/2017 (H3N2) (influenza A virus (H3N2))
[19] = target: hemagglutinin (HA) of influenza A/France/1302001/2018 (H1N1) (influenza A virus (H1N1))
[20] = target: hemagglutinin (HA) of influenza A/Latvia/0304001/2018 (H1N1) (influenza A virus (H1N1))
[21] = target: T1, hemagglutinin (HA) of influenza A/Hong …; remark: listed apart in the source
[22] = target: hemagglutinin (HA) of influenza A/France/1306001/2018 (H1N1) (influenza A virus (H1N1))
[23] = target: hemagglutinin (HA) of influenza A/Kansas/14/2017 (H3N2) (influenza A virus (H3N2))
[24] = target: hemagglutinin (HA) of influenza A/Florida/70609/2017 (H3N2) (influenza A virus (H3N2))
[25] = target: hemagglutinin (HA) of influenza A/Florida/70604/2017 (H3N2) (influenza A virus (H3N2))
[26] = target: T2, hemagglutinin (HA) of influenza …; remark: listed apart in the source
[27] = target: hemagglutinin (HA) of influenza A/Sydney/0903001/2018 (H3N2) (influenza A virus (H3N2))
[28] = target: hemagglutinin (HA) of influenza A/Florida/70327/2017 (H3N2) (influenza A virus (H3N2))
[29] = target: hemagglutinin (HA) of influenza A/Pennsylvania/0725005/2018 (H3N2) (influenza A virus (H3N2))
[30] = target: hemagglutinin (HA) of influenza A/Spain/2602001/2018 (H1N1) (influenza A virus (H1N1))
[31] = target: hemagglutinin (HA) of influenza A/Belarus/1003001/2018 (H3N2) (influenza A virus (H3N2))
[32] = target: hemagglutinin (HA) of influenza A/Georgia/0720004/2018 (H3N2) (influenza A virus (H3N2))
[33] = target: hemagglutinin (HA) of influenza A/Malay sia/1701001/2018 (H1N1) (influenza A virus (H1N1))
[34] = target: hemagglutinin (HA) of influenza A/Thailand/2702006/2018 (H3N2) (influenza A virus (H3N2))
[35] = target: hemagglutinin (HA) of influenza A/Latvia/0303004/2018 (H3N2) (influenza A virus (H3N2))
[36] = target: hemagglutinin (HA) of influenza A/Spain/2609001/2018 (H1N1) (influenza A virus (H1N1))
[37] = target: hemagglutinin (HA) of influenza A/Georgia/0720001/2018 (H1N1) (influenza A virus (H1N1))
[38] = target: hemagglutinin (HA) of influenza A/Pennsylvania/0725006/2018 (H3N2) (influenza A virus (H3N2))
[39] = target: hemagglutinin (HA) of influenza A/France/1307001/2018 (H1N1) (influenza A virus (H1N1))
[40] = target: hemagglutinin (HA) of influenza A/Bulgaria/0106011/2018 (H3N2) (influenza A virus (H3N2))
[41] = target: hemagglutinin (HA) of influenza A/Singapore/2401001/2018 (H3N2) (influenza A virus (H3N2))
[42] = target: hemagglutinin (HA) of influenza A/Ohio/0717002/2018 (H3N2) (influenza A virus (H3N2))
[43] = target: hemagglutinin (HA) of influenza A/California/7/2009 (H1N1) (influenza A virus (H1N1))
[44] = target: hemagglutinin (HA) of influenza A/North Carolina/71330/2017 (H3N2) (influenza A virus (H3N2))
[45] = target: hemagglutinin (HA) of influenza A/Georgia/0720003/2018 (H3N2) (influenza A virus (H3N2))

B1: VIS410 (antibody, V domains shown)
VH: QVQLLETGGGLVKPGQSLKLSCAASGFTFTSYAMHWVRQPPGKGLEWVAVVSYDGNYKYYADSVQGRFTISRDNSKNTLYLQMNSLRAEDTAVYYCAKDSRLRSLLYFEWLSQGYFNPWGQGTTLTVSS
VL: DIQMTQSPSSLSASVGDRVTITCRSSQSITFDYKNYLAWYQQKPGKAPKLLIYWGSYLESGVPSRFSGSGSGTDFTLTISSLQPEDFATYYCQQHYRTPPSFGQGTKVEIK
- EC50, NP ELISA infection assay, both assay formats [1]: 10 nM and 20 nM
- EC50, virus infection of MDCK-London cells (NP ELISA microneutralization) [1]: ~0.01 µM and ~1.5 µg/ml
- EC50, virus infection of MDCK-London cells (NP ELISA microneutralization) [2]: ~0.006 µM and ~0.9 µg/ml
- EC50 (µM) - Replicate 1, CPE assay [3]: 0.013 µM
- EC50 (µM) - Replicate 2, CPE assay [3]: 0.011 µM
- IC50, phenotypic IC50 assay (virus infection of MDCK cells) [4]: 0.34 µg/mL
- IC50, phenotypic IC50 assay (virus infection of MDCK cells) [5]: 0.87 µg/mL
- IC50, phenotypic IC50 assay (virus infection of MDCK cells) [6]: 0.37 µg/mL
- IC50, phenotypic IC50 assay (virus infection of MDCK cells) [7]: 1 µg/mL
- IC50, phenotypic IC50 assay (virus infection of MDCK cells) [8]: 0.97 µg/mL
- IC50, phenotypic IC50 assay (virus infection of MDCK cells) [9]: 1.07 µg/mL
- IC50, phenotypic IC50 assay (virus infection of MDCK cells) [10]: 0.28 µg/mL
- IC50, phenotypic IC50 assay (virus infection of MDCK cells) [11]: 0.41 µg/mL
- IC50, phenotypic IC50 assay (virus infection of MDCK cells) [12]: 0.92 µg/mL
- IC50, phenotypic IC50 assay (virus infection of MDCK cells) [13]: 1.35 µg/mL
- IC50, phenotypic IC50 assay (virus infection of MDCK cells) [14]: 0.67 µg/mL
- IC50, phenotypic IC50 assay (virus infection of MDCK cells) [15]: 0.22 µg/mL
- IC50, phenotypic IC50 assay (virus infection of MDCK cells) [16]: 0.55 µg/mL
- IC50, phenotypic IC50 assay (virus infection of MDCK cells) [17]: 0.55 µg/mL
- IC50, phenotypic IC50 assay (virus infection of MDCK cells) [18]: 3.14 µg/mL
- IC50, phenotypic IC50 assay (virus infection of MDCK cells) [19]: 0.86 µg/mL
- IC50, phenotypic IC50 assay (virus infection of MDCK cells) [20]: 0.57 µg/mL
- IC50, phenotypic IC50 assay (virus infection of MDCK cells) [21]: 1.65 µg/mL
- IC50, phenotypic IC50 assay (virus infection of MDCK cells) [22]: 0.91 µg/mL
- IC50, phenotypic IC50 assay (virus infection of MDCK cells) [23]: 2.65 µg/mL
- IC50, phenotypic IC50 assay (virus infection of MDCK cells) [24]: 2.41 µg/mL
- IC50, phenotypic IC50 assay (virus infection of MDCK cells) [25]: 1.23 µg/mL
- IC50, phenotypic IC50 assay (virus infection of MDCK cells) [26]: 0.89 µg/mL
- IC50, phenotypic IC50 assay (virus infection of MDCK cells) [27]: 1.49 µg/mL
- IC50, phenotypic IC50 assay (virus infection of MDCK cells) [28]: 0.67 µg/mL
- IC50, phenotypic IC50 assay (virus infection of MDCK cells) [29]: 2.2 µg/mL
- IC50, phenotypic IC50 assay (virus infection of MDCK cells) [30]: 0.42 µg/mL
- IC50, phenotypic IC50 assay (virus infection of MDCK cells) [31]: 1.26 µg/mL
- IC50, phenotypic IC50 assay (virus infection of MDCK cells) [32]: 0.97 µg/mL
- IC50, phenotypic IC50 assay (virus infection of MDCK cells) [33]: 0.4 µg/mL
- IC50, phenotypic IC50 assay (virus infection of MDCK cells) [34]: 1.13 µg/mL
- IC50, phenotypic IC50 assay (virus infection of MDCK cells) [35]: 4.47 µg/mL
- IC50, phenotypic IC50 assay (virus infection of MDCK cells) [36]: 0.43 µg/mL
- IC50, phenotypic IC50 assay (virus infection of MDCK cells) [37]: 0.71 µg/mL
- IC50, phenotypic IC50 assay (virus infection of MDCK cells) [38]: 1.5 µg/mL
- IC50, phenotypic IC50 assay (virus infection of MDCK cells) [39]: 0.86 µg/mL
- IC50, phenotypic IC50 assay (virus infection of MDCK cells) [40]: 1.67 µg/mL
- IC50, phenotypic IC50 assay (virus infection of MDCK cells) [41]: 1.17 µg/mL
- IC50, phenotypic IC50 assay (virus infection of MDCK cells) [42]: 0.81 µg/mL
- IC50, phenotypic IC50 assay (virus infection of MDCK cells) [43]: 0.52 µg/mL
- IC50, phenotypic IC50 assay (virus infection of MDCK cells) [44]: 0.92 µg/mL
- IC50, phenotypic IC50 assay (virus infection of MDCK cells) [45]: 0.49 µg/mL
